Laboratory results: article PMC4575469

Test system: TetR
Experiment: SPR
Details: streptavidin surface, promoters at 30-50 RU, TetR 4-62 nM, regeneration with 1 M NaCl and 1 M MgCl2, running buffer, pH and temperature not given in the …

In order of falling Kd:
1. CGCGCGCCTTTCTGCGTTTATATACTAGAGTCCCTATCAGTGATAGAGATTGACATCCCTATCAGTGATAGATATAATGAGCACTACTAGAGTAGTGGAGGTTACTAGATGGTGAGCAAGGGCGAGGAGCTGTTCACCGGGGTGGTGCCCATCCTGCGCG (double strand) [L12 promoter]  8 nM
2. CGCGCGCCTTTCTGCGTTTATATACTAGAGTCCCTATCAGTGATAGAGATTGACATCCCTATCAGTGATAGATATAATGGGCACTACTAGAGTAGTGGAGGTTACTAGATGGTGAGCAAGGGCGAGGAGCTGTTCACCGGGGTGGTGCCCATCCTGCGCG (double strand) [L11 promoter]  6 nM
3. CGCGCGCCTTTCTGCGTTTATATACTAGAGTCCCTATCAGTGATAGAGATTGACATCCCTATCAGTGATAGATATAATGCGCACTACTAGAGTAGTGGAGGTTACTAGATGGTGAGCAAGGGCGAGGAGCTGTTCACCGGGGTGGTGCCCATCCTGCGCG (double strand) [L09 promoter]  6 nM
4. CGCGCGCCTTTCTGCGTTTATATACTAGAGTCCCTATCAGTGATAGAGATTGACATCCCTATCAGTGATAGATATAATGTGCACTACTAGAGTAGTGGAGGTTACTAGATGGTGAGCAAGGGCGAGGAGCTGTTCACCGGGGTGGTGCCCATCCTGCGCG (double strand) [L10 promoter]  5 nM
